T1: IFIH1-WT-Flag (UniProt Q8R5F7 1-1025)
T1 sequence: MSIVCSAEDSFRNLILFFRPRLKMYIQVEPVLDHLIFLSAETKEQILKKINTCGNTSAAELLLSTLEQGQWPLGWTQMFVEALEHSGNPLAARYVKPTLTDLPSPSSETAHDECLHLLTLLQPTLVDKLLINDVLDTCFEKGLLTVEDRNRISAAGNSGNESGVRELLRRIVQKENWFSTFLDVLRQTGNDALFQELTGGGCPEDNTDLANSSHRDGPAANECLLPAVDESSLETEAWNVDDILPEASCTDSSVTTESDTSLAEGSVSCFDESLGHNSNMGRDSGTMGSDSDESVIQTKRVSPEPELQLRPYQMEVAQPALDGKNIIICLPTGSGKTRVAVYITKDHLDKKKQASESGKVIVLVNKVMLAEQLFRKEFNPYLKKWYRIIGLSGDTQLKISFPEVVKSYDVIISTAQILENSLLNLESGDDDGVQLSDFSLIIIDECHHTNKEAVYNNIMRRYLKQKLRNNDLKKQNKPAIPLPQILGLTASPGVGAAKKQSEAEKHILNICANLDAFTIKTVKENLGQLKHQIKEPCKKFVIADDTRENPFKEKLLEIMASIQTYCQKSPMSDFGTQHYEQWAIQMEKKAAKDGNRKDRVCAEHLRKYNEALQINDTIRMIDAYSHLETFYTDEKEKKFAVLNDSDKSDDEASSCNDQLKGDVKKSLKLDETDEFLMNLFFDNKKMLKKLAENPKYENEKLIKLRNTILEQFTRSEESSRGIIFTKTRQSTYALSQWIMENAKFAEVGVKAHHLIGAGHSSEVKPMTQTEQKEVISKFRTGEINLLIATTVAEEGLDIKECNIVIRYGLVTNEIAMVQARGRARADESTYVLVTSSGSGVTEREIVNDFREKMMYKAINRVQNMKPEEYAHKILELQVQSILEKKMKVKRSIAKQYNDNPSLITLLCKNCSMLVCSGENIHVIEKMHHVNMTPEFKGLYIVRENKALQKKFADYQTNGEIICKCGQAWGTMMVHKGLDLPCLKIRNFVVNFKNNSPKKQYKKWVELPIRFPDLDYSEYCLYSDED


Target: T1, IFIH1-WT-Flag
Assay: competition; EMSA, 50 pmol cold RNA vs biotin-IBR1-WT; EMSA: 20 mM HEPES pH 7.5, 150 mM NaCl, 1.5 mM MgCl2, 2 mM DTT, 2 mM ADPCP (so in the source), 10 min at room temperature, BisTris native gel
Conditions: protein: recombinant; tags: Flag; His

Binder | binding result
GUUCCAGCGCAGCCCUUA (ssRNA) [IBR1-M3] | no binding
IBR1-M2 (ssRNA) RNA: UGUAUUUUCUCCUUAUAAUCACUCCCUCCCGGGGCAUGUAAUUAAUUUCCUGAUGGAUUACUCACACGGUCUUGAAGAUGCAAUGUCAGCUAUUUAGGCUGUGCUAGGACUCAAUUACAACAACAUAUGCAUUAAGACAGGAACUGGCAAGCCGGGACUACAGCAACUACAGGGCUGGUGCUUCCCAACCGCUGGGCUAUAAUCUAUGAAACUGAGCCGGGAUCCAGCCAAUCAGUUAGCUAGCUCCUCAUAACAGGUCUAACUGGCUCUGGACAGCUAAGGGCUGCGCUGGAAC | no binding

From PMC11420289, “IBR1, a novel endogenous IFIH1‐binding dsRNA, governs IFIH1 activation and M1 macrophage polarisation in ARDS”
